“And” between values parts separate entries of the source, which are not always exact repeats. Equal values may be shown once.
Target: HA-tagged NLRC4 (UniProt Q3UP24 1-1024)
Test: co-IP

Chain of HA-tagged NLRC4 (Q3UP24 whole entry): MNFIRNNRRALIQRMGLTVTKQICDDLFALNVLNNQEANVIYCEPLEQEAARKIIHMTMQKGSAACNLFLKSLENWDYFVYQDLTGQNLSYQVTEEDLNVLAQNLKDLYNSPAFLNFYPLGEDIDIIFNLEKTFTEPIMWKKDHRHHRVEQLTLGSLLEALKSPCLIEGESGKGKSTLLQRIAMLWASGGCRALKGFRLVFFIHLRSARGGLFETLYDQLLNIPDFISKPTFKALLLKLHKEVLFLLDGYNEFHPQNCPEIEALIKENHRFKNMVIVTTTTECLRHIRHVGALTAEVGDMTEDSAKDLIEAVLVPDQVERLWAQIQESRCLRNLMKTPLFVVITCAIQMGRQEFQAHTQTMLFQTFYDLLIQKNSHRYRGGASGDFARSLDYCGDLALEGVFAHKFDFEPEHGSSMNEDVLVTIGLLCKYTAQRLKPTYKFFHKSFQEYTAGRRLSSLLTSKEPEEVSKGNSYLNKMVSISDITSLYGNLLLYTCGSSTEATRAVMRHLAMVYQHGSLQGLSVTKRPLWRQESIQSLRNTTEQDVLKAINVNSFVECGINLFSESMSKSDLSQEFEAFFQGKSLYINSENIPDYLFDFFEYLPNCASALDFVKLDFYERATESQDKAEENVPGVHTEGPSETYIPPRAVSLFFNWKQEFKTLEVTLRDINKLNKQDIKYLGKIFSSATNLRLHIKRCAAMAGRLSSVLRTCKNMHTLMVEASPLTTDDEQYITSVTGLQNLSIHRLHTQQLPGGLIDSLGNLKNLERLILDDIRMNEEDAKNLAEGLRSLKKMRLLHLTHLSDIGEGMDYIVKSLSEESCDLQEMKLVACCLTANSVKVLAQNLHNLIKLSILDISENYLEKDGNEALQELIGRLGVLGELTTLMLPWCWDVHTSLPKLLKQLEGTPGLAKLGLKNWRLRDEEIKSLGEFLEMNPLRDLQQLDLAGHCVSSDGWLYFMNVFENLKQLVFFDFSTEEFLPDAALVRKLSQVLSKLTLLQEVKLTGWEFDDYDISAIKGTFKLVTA

B1: HA-tagged PELO (natural protein)
chain: MKLVRKDIEKDNAGQVTLVPEEPEDMWHTFNLVQVGDSLRASTIRKVQTESSTGSVGSNRVRTTLTLCVEAIDFDSQACQLRVKGTNIQENEYVKMGAYHTIELEPNRQFTLAKKQWDSVVLERIEQACDPAWSADVAAVVMQEGLAHVCLVTPSMTLTRAKVEVNIPRKRKGNCSQHDRALERFYEQVVQAIQRHINFEVVKCVLVASPGFVREQFCDYMFQQAVKTDNKVLLENRSKFLQVHASSGHKYSLKEALCDPTVASRLSDTKAAGEVKALDDFYKMLQHEPDRAFYGLKQVERANEALAIDTLLISDELFRHQDVATRSRYVRLVDSVKENAGTVRIFSSLHVSGEQLGQLTGVAAILRFPVPELSDQEDDSSSEED
stoichiometry N: < 0.05 PELO per NLRC4 and ~0.05 PELO per NLRC4
